Assay results: patent US20230374114A1 (Dana-Farber, published 2023)

B1: RBD-R3-E1-F5 Ab (Ab_36) (scFv, V domains shown)
VH: QVQLQQSGPGLVKPSQTLSLTCAIFGDSVTSNSAAWNWIRQSPSRGLEWLGRTYYSSKWYNDYAVSVKSRVTINADTSKNQLSLQLNSVTPEDTAVYYCARGWLRLSFDPWGQGTLVTVSS
VL: NFMLTQPHSVSESPGKTVTISCTGSSGSIASNYVQWLQQRLGSAPTTVIYEDNQRPSGVPDRFSGSIDSSSNSASLTISGLKTEDEADYYCQSYDPNNHGVVFGGGTKLTVL
B2: RBD-R3-T1-H3 (Ab_2) (scFv, V domains shown)
VH: EVQLVQSGAEVKKPGSSVKVSCKTSGYTFTTSGISWVRQAPGQGLEWMGWISAYNGNTNYAQKLQGRVTMTTDTSTSTAYMELRSLRSDDTAVYYCARDFHLYYGMDVWGKGTLVTVSS
VL: QSALTQPPSASGSPGQSVTISCTGTSSDVGAYNYVSWYQQHPGKAPKLLIYDVTKRPPGVPDRFSGSKSGNTASLTVSGLQAEDEADYYCAVWDDGLNGRVVFGGGTKLTVL
B3: S1-R3-T1-H7 (Ab12) (scFv, V domains shown)
VH: EVQLVESGPGVVSPSATLFLTCSVSGGSIRTHSWNWIRQPPGKPLEWIGFIHHSGATNKNPSLKSRVTISSDTSKNEFSLTLTSVTAADTAVYYCARGPGILSYWSRGTLVTVSS
VL: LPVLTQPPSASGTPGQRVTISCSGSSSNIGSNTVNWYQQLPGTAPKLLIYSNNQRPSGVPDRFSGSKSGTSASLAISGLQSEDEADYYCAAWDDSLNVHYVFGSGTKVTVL
B4: S1-RBD-R3-T1-G1 Ab (Ab_35) (scFv, V domains shown)
VH: EVQLVQSGAEVKKPGESLRISCKASGYSFTSNWIGWVRQMPGKGLEWMGSIFPGDSDTKYSPSFQGQVTISADRSISTAYLQWSGLKASDTAMYYCARESYNAYGSWGQGTLVTVSS
VL: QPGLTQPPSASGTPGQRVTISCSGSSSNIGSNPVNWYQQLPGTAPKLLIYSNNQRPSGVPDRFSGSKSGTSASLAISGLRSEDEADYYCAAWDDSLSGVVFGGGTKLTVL
B5: S1-RBD-R3-T1-E2 (Ab7) (scFv, V domains shown)
VH: QVQLVQSGGGLVQPGRSLRLSCAASGFTFDDYAMHWVRQVPGKGLEWVSGIDWNSGVIGYADSVKGRFTISRDNAKNSLYLQMNSLRAEDTALYYCAKDAYSYGFLGAFDIWGQGTMVTVSS
VL: QPGLTQPPSVSVAPGQTARISCGGNNIGSKSVHWYQQKPGRAPVLVVYEDRGRPSGIPERFSGSNSGNTATLTVSRVEAGDEADYYCQVWDGDSDHYVFATGTKVSIL
B6: S1-RBD-R3-T1-F9 Ab (Ab_39) (scFv, V domains shown)
VH: QVTLKESGPTLVKPTQTLTLTCTLSGVSLDTIGMRVSWIRQPPGKALEWLARIDWDDDKFYSTALKTRLTISKDTSKNQVVFTMTSMDPVDTATYYCARSGLLYDLDVWGRGTLVTVSS
VL: QSVVTQPPSVSGAPGQRVTISCTGSDSDIGANFVQWYQQLPGTAPKLLIWRNTNRPSGVPDRFSASKSGTSASLAITGLQAEDEADYFCQSYDSSLSAYVFGGGTKVTVL
B7: S1-RBD-R3-T1-F5 (Ab2-7) (scFv, V domains shown)
VH: QVTLKESGPTRVKPTQTLTLTCTFSGFSLSTTGVGVGWIRQPPGKALEWLALIYWNDDKRYSPSLKSRLTITKDTSKNQVVLTMTNMDPVDTATYYCARISGSGYFYPFDIWGQGTTVTVSS
VL: NFMLTQPHSVSESPGKTVTISCTRSSGSIASNYVQWYQQRPGSSPTTVIYEDNQRPSGVPDRFSGSIDSSSNSASLTISGLKAEDEADYYCQSYDSSSLWVFGGGTKLTVL
B8: RBD-R3-E1-G7 (Ab2-10) (scFv, V domains shown)
VH: EVQLVESGPGLVKPSETLSLTCTVSGGSISSYYWSWIRQPAGKGLEWIGRIYTSGSTNYNPSLKSRVTMSVDTSKNQFSLKLSSVTAADTAVYYCARDVGFGWFDRWGQGTLVTVSS
VL: NFMLTQPHSVSESPGKTVTISCTRSSGSIASNYVQWYQQRPGSSPTTVIYEDNQRPSGVPDRFSGSIDSSSNSASLTISGLTTEDEADYYCQSFDSASLWVFGGGTKLTVL
B9: Ab_13 (scFv, V domains shown)
VH: QVTLKESGPKLVKPTQTLTLTCTFSGFSLSTSGVGVGWIRQPPGKALEWLALIYWDDDKRYSPSLKSRLTIAKDTSKYQVVLTMTNMDPVDTATYYCARISGSGYFYPFDIWGQGTMVTVSA
VL: NFMLTQPHSVSESPGKTVTISCTRSSGSIASNYVQWYQQRPGSAPTTVIYEDNQRPSGVPDRFSGSIDSSSNSASLTISGLKTEDEADYYCQSYDSSNLWVFGGGTKLTVL
B10: S1-RBD-R3-E1-E8 Ab (Ab 37) (scFv, V domains shown)
VH: QVQLVQSGAEVKKPGASVKVSCKASGYTFTSYGISWVRQAPGQGLEWMGWISTYNGNTNYAQKLQGRVTMTTDTSTSTAYMEVRSLRSDDTAVYYCARDVFGHFDYWGQGTLVTVSS
VL: NFMLTQPHSVSESPGKTVLISCTRSSGNIATNYVQWYQQRPGSAPTTVIYEDNQRPSGVPDRFSGSIDSSSNSASLTISGLKTEDEADYYCKSYDDGNHVFGGGTKLTVL
B11: S1-R3-T1-C4 (Ab_8) (scFv, V domains shown)
VH: QVQLVQSGAEVKKPGSSVKVSCKASGGTFSSYAISWLRQAPGQGLEWMGWINPNSGGTNYAQKFQGRVTMTRDTSISTAYMELSRLRSDDTAVYYCARGSGGYYLGWGQGTLVTVSS
VL: QPGLTQPPSVSKGLRQTATLTCTGNSNNVGNQGAAWLQQHQGHPPKLLSYMNNNRPPGISERFSASRSGNTASLTITGLQPEDEADYYCSAWDSSLSRWVFGGGTKLSVL
B12: Ab 38 (scFv, V domains shown)
VH: QVTLKESGPTLVKPTQTLTLTCTFSGFSLTTSGVSVGWIRQPPGKALEWLALIHWDDDKRYSPSLRSRLTITRDTSKNQVVLTVTDMDPADTGTYYCASFIMTVYAEYFEDWGQGTLVTVSS
VL: EIVLTQSPATLSVSPGERATLSCRASQSVSSNLAWYQQKPGQAPRLLMYDVSTRATGIPARFSGSGSGTEFSLTISSLQSEDFAVYYCQQRGAWPLTFGGGTKVEIK
B13: S1-RBD-R3-T1-D7 Ab (Ab_34) (scFv, V domains shown)
VH: QVQLVQSGVEVKKPGESLKISCKGSGYSFTSYWIGWVRQMPGKGLEWMGIIYPGDSDTRYSPSFQGQVTISADKSISTAYLQWSSLKASDTAMYYCARTTYSYGSFDYWGQGTLVTVSS
VL: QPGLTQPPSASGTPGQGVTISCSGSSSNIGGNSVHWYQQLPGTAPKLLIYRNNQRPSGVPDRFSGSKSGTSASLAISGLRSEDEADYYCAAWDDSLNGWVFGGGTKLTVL

Legend:
[1] = molecular target: D614G Spike (SARS-CoV2, UniProt P0DTC2 16-1213)
[2] = molecular target: D614G Spike (SARS-CoV-2, UniProt P0DTC2 16-1213)

Binder | Kd [1] | Kd [2]
B1 | 7.42 pM | 
B2 |  | 167 pM
B3 |  | 11.2 pM
B4 | 8.69 pM | 
B5 |  | 2.74 pM
B6 | < 1 pM | 
B7 |  | 9.93 pM
B8 |  | 8.87 pM
B9 |  | 8.1 pM
B10 | 8.54 pM | 
B11 |  | 7.3 pM
B12 | 3.37 pM | 
B13 |  | 9.15 pM
